According to PMC2891831, “Insight into the Mechanisms of Adenovirus Capsid Disassembly from Studies of Defensin Neutralization” (PLoS Pathogens, 2010):
“Also recorded” adds a separate entry of the source.

Tests used:
HAdV species B1 = test: Infection assay (hexon staining), HAdV species B1; format: cell-based, human adenovirus; conditions: 15 µM HD5, A549 cells, hexon staining at ~48 h, vs. no defensin
Description: (§1) To determine whether sensitivity to α-defensins is a general property of HAdVs, serotypes representative of HAdV species A–F were tested for infectivity in the presence of 15 µM HD5 or HNP1 (Figure 1). Wild type HAdVs rather than vectors were used for these studies, and infectivity was assessed by staining for hexon production. […] These studies indicate that sensitivity to α-defensins is species specific. In addition, particular HAdV serotypes are not equally sensitive to all defensins, indicating defensin sequence specificity as well.
(§2) Figure 1 Sensitivity to neutralization by alpha-defensins is AdV species specific. HAdVs were incubated with 15 µM HD5 (A) or HNP1 (B) and assessed for infectivity on A549 cells. Data are the mean of the percent infectivity compared to control cells infected with each virus in the absence of defensin for at least three independent experiments ± SD. The upper limit for quantification of this assay is 200%. […]
(§3) Prior to use in this assay, each virus stock was titrated on A549 cells. […] In parallel, wells were infected with two-fold serial dilutions of each virus to establish a standard curve for quantification with an upper limit of 200%. […] Total well fluorescence above background was quantified with ImageJ software. For each virus, samples were quantified by nonlinear regression against the standard curve using Prism software (GraphPad Software, Inc., La Jolla, CA).

HAdV species B2 = test: Infection assay (hexon staining), HAdV species B2; format: cell-based, human adenovirus; conditions: 15 µM HD5, A549 cells, hexon staining at ~48 h, vs. no defensin
Description: as §1, §2, §3

HAdV species E = test: Infection assay (hexon staining), HAdV species E; format: cell-based, human adenovirus; conditions: 15 µM HD5, A549 cells, hexon staining at ~48 h, vs. no defensin
Description: as §1, §2, §3

HAdV-19c = test: Virus-defensin binding assay, HAdV-19c; set-up: species or system human adenovirus
Excerpt: Figure 2 HD5 binding to HAdV. A) HD5 binding to a representative defensin-sensitive serotype (HAdV-5) was quantified by an equilibrium-binding assay. Data are the mean of the number of HD5 molecules bound per virion at the indicated HD5 concentrations from at least three independent experiments ± SD. Binding curves were fitted using Prism software. B) Binding of HD5 to additional defensin-sensitive (HAdV-7p) and resistant (HAdV-19c, -25p, -51p) serotypes expressed as a percent of HD5 bound to HAdV-5. Data are the mean of two or three independent experiments ± SD.
We assessed HD5 binding to additional serotypes after incubation with 20 µM HD5 (Figure 2B). The sensitive serotype HAdV-7p bound 69.3±15.9% of the amount of HD5 bound to HAdV-5 in parallel samples; whereas, the corresponding values for the resistant serotypes HAdV-19c, -25p, and -51p were 32.5±7.5%, 3.3±5.8%, and 24.6±12.0%, respectively.
To measure HD5 binding to HAdV-5 and -51, HD5 was serially diluted in PBS and mixed with 5 µg purified virus. […] The other half of each sample was used to make a standard curve for quantification. […] Virus bands were quantified using ImageQuant NT software (GE Healthcare). […] The amount of HD5 in the centrifuged samples was then quantified against the standard curve using Prism software. […]

19cPB = test: Infection assay, 19cPB virus chimera; format: cell-based, human adenovirus; conditions: 5 µM and 10 µM HD5, A549 cells; at least three independent experiments; neutralized only at 10 µM
Excerpt: The availability of sensitive (e.g., HAdV-5) and resistant (e.g., HAdV-19c) serotypes provided a means to test this HD5 neutralization model by generating virus chimeras. Initially, virus chimeras were constructed by replacing the sequences for fiber, penton base, and hexon in the HAdV-5 genome with the corresponding sequences from HAdV-19c. Consistent with previous studies, [38], the virus chimera containing the HAdV-19c hexon is not viable; however, constructs containing the HAdV-19c fiber (19cF) or penton base (19cPB) are capable of replicating. […] In contrast, the 19cPB virus has an intermediate phenotype.
Figure 6 Neutralization determinants are located in fiber and penton base. A) Schematic of chimeric viruses. […] B) Each of the chimeric viruses was incubated with 5 µM (grey) or 10 µM (black) HD5 and assessed for infectivity on A549 cells. […] The upper limit for quantification of this assay is 200%.
as §3

19cF = test: Virus-defensin binding assay, 19cF; set-up: species or system human adenovirus; conditions: studies equivalent to Figure 2B, data not shown
Description: (§4) We then combined the GYAR substitution with the PB substitution in a single construct (PB/GYAR).
To measure HD5 binding to HAdV-5 and -51, HD5 was serially diluted in PBS and mixed with 5 µg purified virus. After 1 h incubation on ice, one half of each sample was separated by ultracentrifugation [209,000×g (avg.) for 2 hrs at 4°C] on a discontinuous gradient consisting of 300 µl of 30% nycodenz and 200 µl of 80% nycodenz in 50 mM NaCl, 20 mM HEPES pH 7.4 using an SW55ti rotor with adaptors (Beckman Coulter, Inc.). The visible virus band was collected. The other half of each sample was used to make a standard curve for quantification. All samples were boiled in reducing loading buffer and separated using a 16% PAGEgel (Expedeon, Inc., San Diego, CA) or 10–20% Tris-Tricine gel (Bio-Rad, Hercules, CA). The gels were stained with Deep Purple (GE Healthcare) and imaged on a Typhoon Trio. Virus bands were quantified using ImageQuant NT software (GE Healthcare). The amount of HD5 in each sample was normalized to protein V and hexon. The amount of HD5 in the centrifuged samples was then quantified against the standard curve using Prism software. Affinity and stoichiometry were estimated from the average data of at least three independent experiments using Prism software.

[1] = test system: HAdV-5/HAdV-19c chimeric viruses; test: FACS-based infection assay of virus chimeras at 100-fold lower moi; format: cell-based, human adenovirus; conditions: data not shown
Excerpt: as §4

HAdV-41 = test: Infection assay (hexon staining), HAdV-41; format: cell-based, human adenovirus; conditions: 15 µM HD5, A549 cells
Description: as §1, §2, §3

B1: HD5: human alpha-defensin; synthetic, obtained from Peptides International; three disulfide bonds (PDB 1ZMP) (peptide, UniProt Q01523 20-94, looked up)
Defensin alpha 5: ESLQERADEATTQKQSGEDNQDLAISFAGNGLSALRTSGSQARATCYCRTGRCATRESLSGVCEISGRLYRLCCR
modifications: Defensin-5
Q: Which results are given for B1?
A: sensitivity to neutralization (infectivity) (HAdV species B1): sensitive; sensitivity to neutralization (infectivity) (HAdV species B2): sensitive; sensitivity to neutralization (infectivity) (HAdV species E): sensitive; HD5 bound, percent of HD5 bound to HAdV-5 (HAdV-19c; 20 µM HD5, mean of two or three independent experiments ± SD): 32.5±7.5%; level of HD5 binding (in words) (HAdV-19c; HAdV-19c): only a low level of binding; sensitivity to HD5 neutralization (19cPB): partially neutralized by HD5 but only at the higher concentration tested (10 µM); amount of HD5 bound compared to HAdV-5 (19cF): did not detect a reduction in the amount of HD5 bound; also recorded: did not result in a noticeable reduction in overall HD5 binding; sensitivity phenotype of chimeras in FACS-based assay [1]: Equivalent results; sensitivity to HD5 (HAdV-41): resistant
